Source: article PMC3258846 (Molecular Cell, 2011)

Assays:
GST-ASCC3-B = GST-ASCC3-B (human, UniProt Q8N3C0 401-1300); assay: pull-down
GST-ASCC3-C = GST-ASCC3-C (human, UniProt Q8N3C0 1301-2202); assay: pull-down
GST-ASCC3-C, sequence (Q8N3C0 1301-2202): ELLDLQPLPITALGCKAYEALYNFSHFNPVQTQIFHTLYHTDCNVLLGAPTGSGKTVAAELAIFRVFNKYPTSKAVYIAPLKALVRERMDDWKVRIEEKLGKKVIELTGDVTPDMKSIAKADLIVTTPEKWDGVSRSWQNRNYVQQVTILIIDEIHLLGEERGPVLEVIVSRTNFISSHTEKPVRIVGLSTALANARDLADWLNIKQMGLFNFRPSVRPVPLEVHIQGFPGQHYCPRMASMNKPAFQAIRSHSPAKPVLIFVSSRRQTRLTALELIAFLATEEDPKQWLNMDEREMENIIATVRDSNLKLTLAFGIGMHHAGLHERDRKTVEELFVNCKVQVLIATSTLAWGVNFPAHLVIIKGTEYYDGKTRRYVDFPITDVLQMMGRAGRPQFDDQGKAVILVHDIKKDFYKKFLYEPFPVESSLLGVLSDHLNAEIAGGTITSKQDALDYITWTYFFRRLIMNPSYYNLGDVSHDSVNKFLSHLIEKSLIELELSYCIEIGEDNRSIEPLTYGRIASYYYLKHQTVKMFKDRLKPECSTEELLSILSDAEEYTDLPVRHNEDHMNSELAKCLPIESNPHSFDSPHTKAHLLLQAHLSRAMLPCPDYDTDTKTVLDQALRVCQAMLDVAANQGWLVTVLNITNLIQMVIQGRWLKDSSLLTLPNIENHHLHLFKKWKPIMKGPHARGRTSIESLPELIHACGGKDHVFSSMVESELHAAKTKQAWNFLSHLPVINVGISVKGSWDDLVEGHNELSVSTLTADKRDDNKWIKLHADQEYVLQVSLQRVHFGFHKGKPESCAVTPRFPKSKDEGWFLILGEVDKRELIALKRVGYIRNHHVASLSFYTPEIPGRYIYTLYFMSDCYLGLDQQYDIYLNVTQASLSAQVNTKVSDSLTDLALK

GST-ASCC3-B, sequence (Q8N3C0 401-1300): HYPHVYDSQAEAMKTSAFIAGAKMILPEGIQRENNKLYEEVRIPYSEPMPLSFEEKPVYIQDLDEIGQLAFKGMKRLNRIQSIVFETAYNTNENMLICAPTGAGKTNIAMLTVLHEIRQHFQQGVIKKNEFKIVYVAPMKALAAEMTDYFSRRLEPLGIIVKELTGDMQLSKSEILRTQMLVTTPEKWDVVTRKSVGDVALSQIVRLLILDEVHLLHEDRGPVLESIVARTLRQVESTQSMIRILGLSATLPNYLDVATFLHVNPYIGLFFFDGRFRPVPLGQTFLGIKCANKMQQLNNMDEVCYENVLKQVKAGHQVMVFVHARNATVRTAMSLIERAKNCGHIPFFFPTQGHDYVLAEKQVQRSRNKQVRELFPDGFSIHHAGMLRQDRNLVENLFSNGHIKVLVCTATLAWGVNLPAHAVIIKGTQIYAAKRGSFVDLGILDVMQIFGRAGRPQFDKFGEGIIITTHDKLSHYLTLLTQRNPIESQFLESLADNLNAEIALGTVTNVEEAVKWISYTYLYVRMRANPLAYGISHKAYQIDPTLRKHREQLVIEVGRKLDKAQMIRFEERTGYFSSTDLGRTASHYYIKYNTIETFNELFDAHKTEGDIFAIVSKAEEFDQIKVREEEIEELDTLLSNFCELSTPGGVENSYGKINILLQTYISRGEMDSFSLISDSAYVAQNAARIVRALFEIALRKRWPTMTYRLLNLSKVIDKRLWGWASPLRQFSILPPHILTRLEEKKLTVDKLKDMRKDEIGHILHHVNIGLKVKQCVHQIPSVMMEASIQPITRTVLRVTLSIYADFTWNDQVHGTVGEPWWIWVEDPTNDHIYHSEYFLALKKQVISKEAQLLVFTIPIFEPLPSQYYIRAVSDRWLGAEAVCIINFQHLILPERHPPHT

B1: His6-ALKBH3 (enzyme, human, UniProt Q96Q83 1-286, looked up)
chain: MEEKRRRARVQGAWAAPVKSQAIAQPATTAKSHLHQKPGQTWKNKEHHLSDREFVFKEPQQVVRRAPEPRVIDREGVYEISLSPTGVSRVCLYPGFVDVKEADWILEQLCQDVPWKQRTGIREDITYQQPRLTAWYGELPYTYSRITMEPNPHWHPVLRTLKNRIEENTGHTFNSLLCNLYRNEKDSVDWHSDDEPSLGRCPIIASLSFGATRTFEMRKKPPPEENGDYTYVERVKIPLDHGTLLIMEGATQADWQHRVPKEYHSREPRVNLTFRTVYPDPRGAPW
binding result (GST-ASCC3-B): binds | binding result (GST-ASCC3-C): binds
